Measurements published in the supplement of paper PMC10567573.

B1: KLHL20 (parent)
chain: YQDMIYAVGGRDDTTELSSAERYN

Variants of: B1
Test: protein stability index of a GFP-peptide fusion (GPS, HEK-293T) (PSI 1-6); higher = more stable
Conditions: c terminus: a fixed tail appended
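Also: lentivirally expressed fusions sorted by FACS into six bins by GFP to DsRed ratio, PSI derived from sequencing read proportions per bin multiplied by bin number.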

Variant | protein stability index
YQDMQYAVGGRDDTTELSSAERYN [I5Q] | 4.11
YQDMTYAVGGRDDTTELSSAERYN [I5T] | 3.17
YQDMYYAVGGRDDTTELSSAERYN [I5Y] | 2.21
YQDMMYAVGGRDDTTELSSAERYN [I5M] | 2.77
YQDMVYAVGGRDDTTELSSAERYN [I5V] | 2.53
YQDMCYAVGGRDDTTELSSAERYN [I5C] | 2.52
YQDMNYAVGGRDDTTELSSAERYN [I5N] | 3.09
YQDMDYAVGGRDDTTELSSAERYN [I5D] | 3.99
YQDMGYAVGGRDDTTELSSAERYN [I5G] | 3.14
YQDMFYAVGGRDDTTELSSAERYN [I5F] | 1.79
YQDMKYAVGGRDDTTELSSAERYN [I5K] | 3.39
YQDMEYAVGGRDDTTELSSAERYN [I5E] | 3.98
YQDMRYAVGGRDDTTELSSAERYN [I5R] | 2.71
YQDMPYAVGGRDDTTELSSAERYN [I5P] | 2.72
YQDMAYAVGGRDDTTELSSAERYN [I5A] | 2.28
YQDMHYAVGGRDDTTELSSAERYN [I5H] | 2.65
YQDMLYAVGGRDDTTELSSAERYN [I5L] | 2.61
YQDMSYAVGGRDDTTELSSAERYN [I5S] | 3.53
YQDMWYAVGGRDDTTELSSAERYN [I5W] | 2.48
YQDMIYAVVGRDDTTELSSAERYN [G9V] | 2.02
YQDMIYAVLGRDDTTELSSAERYN [G9L] | 2.01
YQDMIYAVYGRDDTTELSSAERYN [G9Y] | 1.32
YQDMIYAVMGRDDTTELSSAERYN [G9M] | 2.17
YQDMIYAVNGRDDTTELSSAERYN [G9N] | 1.95

Variant | protein stability index
YQDMIYAVCGRDDTTELSSAERYN [G9C] | 2.23
YQDMIYAVDGRDDTTELSSAERYN [G9D] | 2.88
YQDMIYAVIGRDDTTELSSAERYN [G9I] | 1.51
YQDMIYAVPGRDDTTELSSAERYN [G9P] | 2.32
YQDMIYAVTGRDDTTELSSAERYN [G9T] | 2.4
YQDMIYAVKGRDDTTELSSAERYN [G9K] | 2.07
YQDMIYAVRGRDDTTELSSAERYN [G9R] | 2.36
YQDMIYAVEGRDDTTELSSAERYN [G9E] | 2.53
YQDMIYAVWGRDDTTELSSAERYN [G9W] | 1.92
YQDMIYAVAGRDDTTELSSAERYN [G9A] | 1.94
YQDMIYAVHGRDDTTELSSAERYN [G9H] | 1.94
YQDMIYAVFGRDDTTELSSAERYN [G9F] | 2.15
YQDMIYAVQGRDDTTELSSAERYN [G9Q] | 2.27
YQDMIYAVSGRDDTTELSSAERYN [G9S] | 1.85
YQIMIYAVGGRDDTTELSSAERYN [D3I] | 2.26
YQGMIYAVGGRDDTTELSSAERYN [D3G] | 1.47
YQKMIYAVGGRDDTTELSSAERYN [D3K] | 2.79
YQMMIYAVGGRDDTTELSSAERYN [D3M] | 1.81
YQAMIYAVGGRDDTTELSSAERYN [D3A] | 1.7
YQQMIYAVGGRDDTTELSSAERYN [D3Q] | 3.08
YQCMIYAVGGRDDTTELSSAERYN [D3C] | 2.15
YQLMIYAVGGRDDTTELSSAERYN [D3L] | 1.81
YQWMIYAVGGRDDTTELSSAERYN [D3W] | 2.03
YQTMIYAVGGRDDTTELSSAERYN [D3T] | 1.56

Variant | protein stability index
YQRMIYAVGGRDDTTELSSAERYN [D3R] | 2.83
YQEMIYAVGGRDDTTELSSAERYN [D3E] | 2.48
YQYMIYAVGGRDDTTELSSAERYN [D3Y] | 1.77
YQPMIYAVGGRDDTTELSSAERYN [D3P] | 3.4
YQVMIYAVGGRDDTTELSSAERYN [D3V] | 1.86
YQNMIYAVGGRDDTTELSSAERYN [D3N] | 2.63
YQSMIYAVGGRDDTTELSSAERYN [D3S] | 1.99
YQHMIYAVGGRDDTTELSSAERYN [D3H] | 2.15
YQFMIYAVGGRDDTTELSSAERYN [D3F] | 1.88
YQDMIYAVGARDDTTELSSAERYN [G10A] | 1.83
YQDMIYAVGKRDDTTELSSAERYN [G10K] | 1.83
YQDMIYAVGNRDDTTELSSAERYN [G10N] | 2.45
YQDMIYAVGYRDDTTELSSAERYN [G10Y] | 1.8
YQDMIYAVGDRDDTTELSSAERYN [G10D] | 2.81
YQDMIYAVGWRDDTTELSSAERYN [G10W] | 1.91
YQDMIYAVGERDDTTELSSAERYN [G10E] | 2.92
YQDMIYAVGCRDDTTELSSAERYN [G10C] | 2.23
YQDMIYAVGSRDDTTELSSAERYN [G10S] | 2.09
YQDMIYAVGVRDDTTELSSAERYN [G10V] | 2.05
YQDMIYAVGHRDDTTELSSAERYN [G10H] | 2.12
YQDMIYAVGTRDDTTELSSAERYN [G10T] | 1.82
YQDMIYAVGQRDDTTELSSAERYN [G10Q] | 2.61
YQDMIYAVGPRDDTTELSSAERYN [G10P] | 2.44
YQDMIYAVGFRDDTTELSSAERYN [G10F] | 2.27

Variant | protein stability index
YQDMIYAVGLRDDTTELSSAERYN [G10L] | 1.78
YQDMIYAVGIRDDTTELSSAERYN [G10I] | 1.62
YQDMIYAVGMRDDTTELSSAERYN [G10M] | 1.87
YQDMIYAVGRRDDTTELSSAERYN [G10R] | 1.86
YQDMIYAVGGIDDTTELSSAERYN [R11I] | 2.44
YQDMIYAVGGMDDTTELSSAERYN [R11M] | 2.32
YQDMIYAVGGHDDTTELSSAERYN [R11H] | 2.1
YQDMIYAVGGDDDTTELSSAERYN [R11D] | 3.01
YQDMIYAVGGGDDTTELSSAERYN [R11G] | 2.33
YQDMIYAVGGCDDTTELSSAERYN [R11C] | 2.69
YQDMIYAVGGNDDTTELSSAERYN [R11N] | 2.49
YQDMIYAVGGYDDTTELSSAERYN [R11Y] | 1.91
YQDMIYAVGGFDDTTELSSAERYN [R11F] | 2.08
YQDMIYAVGGTDDTTELSSAERYN [R11T] | 2.23
YQDMIYAVGGSDDTTELSSAERYN [R11S] | 2.9
YQDMIYAVGGPDDTTELSSAERYN [R11P] | 2.57
YQDMIYAVGGEDDTTELSSAERYN [R11E] | 3
YQDMIYAVGGLDDTTELSSAERYN [R11L] | 1.99
YQDMIYAVGGVDDTTELSSAERYN [R11V] | 2.16
YQDMIYAVGGADDTTELSSAERYN [R11A] | 2.54
YQDMIYAVGGKDDTTELSSAERYN [R11K] | 2.55
YQDMIYAVGGWDDTTELSSAERYN [R11W] | 2.08
